Experiments:
Test in all cases: ELISA, coated CR6261, P. pastoris medium
Conditions in all cases: remark: other sources report otherwise
[1] = target: 101D4 (influenza A H1N1 A/Brisbane/59/2007)
[2] = target: 104C4 (influenza A H1N1 A/Brisbane/59/2007)
[3] = target: 112G6 (influenza A H1N1 A/Brisbane/59/2007)
[4] = target: 123E2 (influenza A H1N1 A/Brisbane/59/2007)
[5] = target: 127A7 (influenza A H1N1 A/Brisbane/59/2007)
[6] = target: 134A3 (influenza A H1N1 A/Brisbane/59/2007)
[7] = target: 134A4 (influenza A H1N1 A/Brisbane/59/2007)
[8] = target: 134D3 (influenza A H1N1 A/Brisbane/59/2007)
[9] = target: 134H10 (influenza A H1N1 A/Brisbane/59/2007)
[10] = target: 137C11 (influenza A H1N1 A/Brisbane/59/2007)
[11] = target: 138F11 (influenza A H1N1 A/Brisbane/59/2007)
[12] = target: 145C9 (influenza A H1N1 A/Brisbane/59/2007)
[13] = target: 145F2 (influenza A H1N1 A/Brisbane/59/2007)
[14] = target: 162B3 (influenza A H1N1 A/Brisbane/59/2007)
[15] = target: 181H9 (influenza A H1N1 A/Brisbane/59/2007)
[16] = target: 188A8 (influenza A H1N1 A/Brisbane/59/2007)
[17] = target: 18987 (influenza A H1N1 A/Brisbane/59/2007)
[18] = target: 194C8 (influenza A H1N1 A/Brisbane/59/2007)
[19] = target: 194E4 (influenza A H1N1 A/Brisbane/59/2007)
[20] = target: 20688 (influenza A H1N1 A/Brisbane/59/2007)
[21] = target: 213B2 (influenza A H1N1 A/Brisbane/59/2007)
[22] = target: 220C9 (influenza A H1N1 A/Brisbane/59/2007)
[23] = target: 233F11 (influenza A H1N1 A/Brisbane/59/2007)
[24] = target: 234C5 (influenza A H1N1 A/Brisbane/59/2007)
[25] = target: 243D6 (influenza A H1N1 A/Brisbane/59/2007)
[26] = target: 24782 (influenza A H1N1 A/Brisbane/59/2007)
[27] = target: 249B11 (influenza A H1N1 A/Brisbane/59/2007)
[28] = target: 252B8 (influenza A H1N1 A/Brisbane/59/2007)
[29] = target: 252F5 (influenza A H1N1 A/Brisbane/59/2007)
[30] = target: 25304 (influenza A H1N1 A/Brisbane/59/2007)
[31] = target: 266A11 (influenza A H1N1 A/Brisbane/59/2007)
[32] = target: 275G3 (influenza A H1N1 A/Brisbane/59/2007)
[33] = target: 284B9 (influenza A H1N1 A/Brisbane/59/2007)
[34] = target: 304G11 (influenza A H1N1 A/Brisbane/59/2007)
[35] = target: 307A10 (influenza A H1N1 A/Brisbane/59/2007)

B1: CR6261 (antibody, V domains shown)
VH: EVQLVESGAEVKKPGSSVKVSCKASGGPFRSYAISWVRQAPGQGPEWMGGIIPIFGTTKYAPKFQGRVTITADDFAGTVYMELSSLRSEDTAMYYCAKHMGYQVRETMDVWGKGTTVTVSS
VL: QSVLTQPPSVSAAPGQKVTISCSGSSSNIGNDYVSWYQQLPGTAPKLLIYDNNKRPSGIPDRFSGSKSGTSATLGITGLQTGDEANYYCATWDRRPTAYVVFGGGTKLTVLG
B1 was tested, and the CR6261 binding signal [1] was 337000, the CR6261 binding signal [2] was 521000 and the CR6261 binding signal [3] was 544000. The CR6261 binding signal [4] was 477000, the CR6261 binding signal [5] was 233000 and the CR6261 binding signal [6] was 532000. For the same binder, the CR6261 binding signal [7] was 456000, the CR6261 binding signal [8] was 304000 and the CR6261 binding signal [9] was 592000. For the same binder, the CR6261 binding signal [10] was 417000, the CR6261 binding signal [11] was 148000 and the CR6261 binding signal [12] was 182000. For the same binder, the CR6261 binding signal [13] was 499000, the CR6261 binding signal [14] was 280000 and the CR6261 binding signal [15] was 311000. It also gave a CR6261 binding signal [16] of 279000, a CR6261 binding signal [17] of 336000 and a CR6261 binding signal [18] of 242000. The CR6261 binding signal [19] was 409000, the CR6261 binding signal [20] was 286000 and the CR6261 binding signal [21] was 132000. It also gave a CR6261 binding signal [22] of 1.09e+06, a CR6261 binding signal [23] of 583000 and a CR6261 binding signal [24] of 278000. The CR6261 binding signal [25] was 132000, the CR6261 binding signal [26] was 415000 and the CR6261 binding signal [27] was 145000. The CR6261 binding signal [28] was 285000, the CR6261 binding signal [29] was 422000 and the CR6261 binding signal [30] was 396000. It also gave a CR6261 binding signal [31] of 90600, a CR6261 binding signal [32] of 115000 and a CR6261 binding signal [33] of 1.66e+06. For the same binder, the CR6261 binding signal [34] was 111000 and the CR6261 binding signal [35] was 115000.

Reference: patent US20170189519A1
